# T1: human IL-17RE (Thr155-Ser451), soluble form (human, UniProt Q8NFR9 155-451)
# T1 sequence (looked up): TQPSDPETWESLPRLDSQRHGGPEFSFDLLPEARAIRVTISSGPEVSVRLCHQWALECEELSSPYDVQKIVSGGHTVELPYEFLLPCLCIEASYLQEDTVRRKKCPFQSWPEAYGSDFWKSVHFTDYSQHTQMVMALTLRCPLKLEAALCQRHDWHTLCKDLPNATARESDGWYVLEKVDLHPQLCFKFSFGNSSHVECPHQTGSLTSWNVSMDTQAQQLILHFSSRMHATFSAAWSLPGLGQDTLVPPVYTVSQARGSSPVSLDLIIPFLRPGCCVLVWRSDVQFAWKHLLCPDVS
# Target: T1, human IL-17RE (Thr155-Ser451), soluble …
# Assay: SEC
binder,measurement,value
"human IL-17c (residues His19-Val197), soluble form (ligand, UniProt Q9P0M4 19-197, looked up) HHDPSLRGHPHSHGTPHCYSAEELPLGQAPPHLLARGAKWGQALPVALVSSLEAASHRGRHERPSATTQCPVLRPEEVLEADTHQRSISPWRYRVDTDEDRYPQKLAFAECLCRGCIDARTGRETAALNSVRLLQSLLVLRRRPCSRDGSGLPTPGAFAFHTEFIHVPVGCTCVLPRSV",binding result,binds
